In this experiment the target is recombinant EBV LMP2A N-terminal cytoplasmic domain (LMP2A-NCD), His6-tagged (Epstein-Barr virus) (UniProt P13285). The experiment can be described thus: SPR; BIAcore T200; LMP2A-NCD immobilised on Sensor Chip CM5; affibodies flowed at 2.5-20 μM; global fit, one-to-one Langmuir binding model.
UniProt P13285, sequence (P13285 1-119): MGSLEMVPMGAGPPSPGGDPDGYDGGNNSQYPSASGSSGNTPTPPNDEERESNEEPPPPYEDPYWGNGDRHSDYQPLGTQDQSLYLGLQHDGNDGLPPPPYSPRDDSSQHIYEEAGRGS

In general, koff refers to the first-order rate constant of dissociation. For “ZWT affibody (wild SPA-Z scaffold) (designed binder)”, the off-rate constant (koff) stood at 5.96e-05 s⁻¹.

(Values after publication PMC7113277.)
